The data set deals with the molecule itself. The experiment in a line: disulfide-linked dimer fraction in lipid vesicles by SDS-PAGE.

Take SSPGTPASPCSLSGIIIGVTVAAVVLIVAVFVSKSLLWKK [DR5-L TM peptide (synthetic 40-residue DR5-L transmembrane domain)]: the “stoichiometry N” value stood at 2.

(Values after paper PMC5394796 (Journal of molecular biology, 2016).)
